Results from paper PMC3874162 (Nucleic Acids Research, 2013).

Legend:
Assay in all cases: EMSA
Cdc13-DBD = target: T1, Cdc13-DBD (Saccharomyces cerevisiae, UniProt P32797 497-694)
T1 sequence: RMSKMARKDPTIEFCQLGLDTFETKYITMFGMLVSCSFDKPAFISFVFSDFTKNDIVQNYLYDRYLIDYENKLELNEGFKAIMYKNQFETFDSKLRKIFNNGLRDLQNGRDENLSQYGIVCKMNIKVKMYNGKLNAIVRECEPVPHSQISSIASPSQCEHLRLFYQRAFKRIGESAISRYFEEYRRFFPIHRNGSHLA

Cdc13-F539A = target: T2, Cdc13-F539A (Saccharomyces cerevisiae, UniProt P32797 1-924, F539A)
T2 sequence: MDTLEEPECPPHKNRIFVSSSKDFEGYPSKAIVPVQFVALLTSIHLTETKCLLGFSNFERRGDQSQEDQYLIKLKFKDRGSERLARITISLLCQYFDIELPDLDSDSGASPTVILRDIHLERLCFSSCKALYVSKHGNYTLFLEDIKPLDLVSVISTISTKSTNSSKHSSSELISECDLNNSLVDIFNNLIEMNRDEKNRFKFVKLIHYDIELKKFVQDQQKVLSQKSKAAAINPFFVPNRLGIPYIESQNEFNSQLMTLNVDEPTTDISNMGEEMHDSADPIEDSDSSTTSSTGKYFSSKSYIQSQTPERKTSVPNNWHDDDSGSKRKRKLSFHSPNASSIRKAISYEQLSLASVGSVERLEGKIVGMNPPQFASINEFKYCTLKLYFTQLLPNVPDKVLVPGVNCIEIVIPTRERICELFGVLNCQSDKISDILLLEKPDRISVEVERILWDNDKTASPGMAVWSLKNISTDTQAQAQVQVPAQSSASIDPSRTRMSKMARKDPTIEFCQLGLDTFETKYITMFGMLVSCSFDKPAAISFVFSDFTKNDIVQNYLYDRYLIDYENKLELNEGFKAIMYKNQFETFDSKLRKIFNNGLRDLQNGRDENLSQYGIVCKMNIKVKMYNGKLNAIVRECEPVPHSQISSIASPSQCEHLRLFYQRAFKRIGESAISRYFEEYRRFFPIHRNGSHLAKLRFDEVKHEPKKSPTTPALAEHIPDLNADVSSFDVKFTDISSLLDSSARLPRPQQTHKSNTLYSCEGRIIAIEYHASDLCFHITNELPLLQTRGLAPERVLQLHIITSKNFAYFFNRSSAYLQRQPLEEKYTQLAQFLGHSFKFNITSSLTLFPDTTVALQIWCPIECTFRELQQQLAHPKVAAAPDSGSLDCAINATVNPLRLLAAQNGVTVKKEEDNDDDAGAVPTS

Cdc13-Y561A = target: T3, Cdc13-Y561A (Saccharomyces cerevisiae, UniProt P32797 1-924, Y561A)
T3 sequence: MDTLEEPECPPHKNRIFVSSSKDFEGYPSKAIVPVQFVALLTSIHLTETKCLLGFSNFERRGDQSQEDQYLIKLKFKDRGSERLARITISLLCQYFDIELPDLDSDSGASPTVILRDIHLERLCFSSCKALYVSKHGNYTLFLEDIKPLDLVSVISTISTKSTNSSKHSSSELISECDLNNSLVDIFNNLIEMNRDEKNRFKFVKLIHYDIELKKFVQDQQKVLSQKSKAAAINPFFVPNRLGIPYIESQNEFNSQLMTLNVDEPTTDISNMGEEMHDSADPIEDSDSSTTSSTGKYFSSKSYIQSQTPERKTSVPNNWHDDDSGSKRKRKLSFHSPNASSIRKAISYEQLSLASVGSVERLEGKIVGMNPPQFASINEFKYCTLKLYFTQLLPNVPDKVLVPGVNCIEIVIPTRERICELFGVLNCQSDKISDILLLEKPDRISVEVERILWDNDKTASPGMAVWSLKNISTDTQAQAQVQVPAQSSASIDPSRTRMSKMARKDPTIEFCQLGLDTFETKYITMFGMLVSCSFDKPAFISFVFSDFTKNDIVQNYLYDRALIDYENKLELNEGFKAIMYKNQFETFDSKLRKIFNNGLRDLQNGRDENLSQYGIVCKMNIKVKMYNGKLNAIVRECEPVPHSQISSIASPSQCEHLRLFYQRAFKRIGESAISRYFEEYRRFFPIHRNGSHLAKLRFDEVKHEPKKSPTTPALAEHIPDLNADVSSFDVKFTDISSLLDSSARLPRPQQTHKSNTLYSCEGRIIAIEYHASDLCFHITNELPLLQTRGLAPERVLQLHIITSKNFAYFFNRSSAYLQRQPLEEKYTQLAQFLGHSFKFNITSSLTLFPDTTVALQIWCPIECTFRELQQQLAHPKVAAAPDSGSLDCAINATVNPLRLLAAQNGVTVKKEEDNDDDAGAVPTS

## GTGTGGGTGTG (ssDNA) [Tel11]
Cdc13-DBD
  Kd: 0.0034 ± 0.0005 nM
Cdc13-F539A
  Kd: 0.14 ± 0.02 nM
Cdc13-Y561A
  Kd: 0.017 ± 0.001 nM
